Measured values from patent publication US20240401013.

Experiments:
[1] = tested on: PE-Bce integrase fusion (PASTE v4; printed Bcel); test: cell_activity; settings: PASTE v4 comparator, Hepa1c1c7; att sequences not given
[2] = tested on: PE-Bxb1 integrase fusion (PASTE v3; printed Bxbl); test: cell_activity; settings: PASTE v3 comparator, Hepa1c1c7; att sequences not given

Bce att sites (PASTE v4) showed an activity (% mCherry-positive cells) [1] of 0.5.

With Bxb1 att sites (PASTE v3) the activity (% mCherry-positive cells) [2] was 3.8.
